Measured values taken from patent US20170073395A1 (Pfizer, published 2017).
Each block holds one binder with its values, some of them ahead of it.

How the values were obtained:
hRAGE = target: T1, hRAGE (human, UniProt Q15109 24-344, limits assumed); test: Biacore specificity assay: IgG immobilised (about 300 RU), antigen h-RAGE-fc injected at 500 nM
T1 construct: also called human RAGE
Description: (§1) Biacore specificity analyses were performed using the T-200 biosensor, series S CM5 chips, an amine-coupling kit, 10 mM sodium acetate immobilization buffer at pH 5.0, 10× HBS-P running buffer and NaOH for regeneration (GE Healthcare). A predefined ligand (IgG) immobilization program was set up to immobilize approximately 300 Response Units (RU) on the flow cell for each IgG to be tested. For Anti-RAGE and anti-A33, a panel of fully-purified recombinant target and non-target antigens were diluted in HBS-P running buffer to a final concentration of 500 nM. Four groups of antigens were examined, including: cell membrane proteins (mTRKB, hTRKB, mEGFR, hEGFR, hFceR1, hIL-21R, mICAM1, mICAM2, hICAM1, hCD33, hLAMP-1, hLOX-1, and), soluble signaling molecules (mTNFa, hVEGF, hCXCL13) and albumins (BSA, HSA and MSA). These proteins were injected at 50 μl/min for 3 min, followed by a 5 sec pulse of 20 mM NaOH for regeneration of the chip surface. For pTau, a series of pTau-derived phosphorylated and non-phosphorylated peptides were flowed, as in Shih et al.³. All sensorgrams were analyzed using the Biacore T-200 evaluation software.

hIL-21R = target: T2, hIL-21R (human, UniProt Q9HBE5 20-232, limits assumed); test: Biacore specificity assay: IgG immobilised (about 300 RU), antigen injected at 500 nM
T2 construct: Non-target panel protein
Description: as §1

mTNFa = target: T3, mTNFa (mouse, UniProt P06804 80-235); test: as above
T3 construct: Non-target panel protein
T3 sequence (looked up): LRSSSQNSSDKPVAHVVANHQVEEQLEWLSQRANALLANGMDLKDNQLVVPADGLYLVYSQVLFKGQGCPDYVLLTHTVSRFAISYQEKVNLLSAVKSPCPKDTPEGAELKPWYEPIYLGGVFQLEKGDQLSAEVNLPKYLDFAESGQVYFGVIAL
Description: as §1

hCD33 = target: T4, hCD33 (human, UniProt P20138 18-259, limits assumed); test: as above
T4 construct: Non-target panel protein
Description: as §1

hCXCL13 = target: T5, hCXCL13 (human, UniProt O43927 23-109); test: as above
T5 construct: Non-target panel protein
T5 sequence (looked up): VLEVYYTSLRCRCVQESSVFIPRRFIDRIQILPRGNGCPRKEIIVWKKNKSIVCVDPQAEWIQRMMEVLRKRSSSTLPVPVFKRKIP
Description: as §1

mICAM2 = target: T6, mICAM2 (mouse, UniProt P35330 23-222, limits assumed); test: as above
T6 construct: Non-target panel protein
T6 sequence (looked up): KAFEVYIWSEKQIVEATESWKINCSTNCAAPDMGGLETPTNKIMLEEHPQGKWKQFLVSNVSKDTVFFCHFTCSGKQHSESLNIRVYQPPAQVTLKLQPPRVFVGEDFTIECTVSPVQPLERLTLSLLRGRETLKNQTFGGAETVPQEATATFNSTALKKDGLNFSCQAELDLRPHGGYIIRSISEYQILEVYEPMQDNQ
Description: as §1

hLAMP-1 = target: T7, hLAMP-1 (human, UniProt P11279 29-382, limits assumed); test: as above
T7 construct: Non-target panel protein
T7 sequence (looked up): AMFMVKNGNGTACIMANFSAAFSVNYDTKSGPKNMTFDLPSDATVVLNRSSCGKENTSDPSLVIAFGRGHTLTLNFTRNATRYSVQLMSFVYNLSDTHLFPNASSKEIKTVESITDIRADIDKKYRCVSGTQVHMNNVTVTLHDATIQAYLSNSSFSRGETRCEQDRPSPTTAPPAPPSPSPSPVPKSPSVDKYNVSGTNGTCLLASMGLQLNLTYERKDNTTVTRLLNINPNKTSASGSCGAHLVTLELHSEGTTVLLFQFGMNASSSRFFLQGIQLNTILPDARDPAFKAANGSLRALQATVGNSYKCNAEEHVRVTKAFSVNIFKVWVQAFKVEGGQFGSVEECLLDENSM
Description: as §1

mICAM1 = target: T8, mICAM1 (mouse, UniProt P13597 28-485, limits assumed); test: as above
T8 construct: Non-target panel protein
Description: as §1

hICAM1 = target: T9, hICAM1 (human, UniProt P05362 28-480, limits assumed); test: as above
T9 construct: Non-target panel protein
Description: as §1

hLOX-1 = hLOX-1 (human, UniProt P78380 61-273); test: as above
Description: as §1

hEGFR = target: T10, hEGFR (human, UniProt P00533 25-645, limits assumed); test: as above
T10 construct: Non-target panel protein
Description: as §1

mTRKB = target: T11, mTRKB (mouse, UniProt P15209 32-429, limits assumed); test: as above
T11 construct: Non-target panel protein
Description: as §1

mEGFR = target: T12, mEGFR (mouse, UniProt Q01279 25-647, limits assumed); test: as above
T12 construct: Non-target panel protein
Description: as §1

hFceR1 = target: T13, hFceR1 (human, UniProt P12319 26-205); test: as above
T13 construct: Non-target panel protein
T13 sequence (alpha): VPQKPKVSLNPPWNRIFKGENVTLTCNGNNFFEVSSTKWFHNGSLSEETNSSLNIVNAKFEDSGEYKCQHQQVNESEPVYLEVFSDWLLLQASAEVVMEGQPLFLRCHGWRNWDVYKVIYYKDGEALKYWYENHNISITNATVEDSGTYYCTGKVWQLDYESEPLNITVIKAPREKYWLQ
Description: as §1

hVEGF = target: T14, hVEGF (human, UniProt P15692-4 27-191, limits assumed); test: as above
T14 construct: Non-target panel protein
Description: as §1

hTRKB = target: T15, hTRKB (human, UniProt Q16620 32-430, limits assumed); test: as above
T15 construct: Non-target panel protein
Description: as §1

mRAGE = target: T16, mRAGE (mouse, UniProt Q62151 24-342, limits assumed); test: Biacore specificity assay: IgG immobilised (about 300 RU), antigen m-RAGE-fc injected at 500 nM
T16 construct: also called mouse RAGE
Description: as §1

[1] = target: T17, Human A33 ectodomain protein (human, UniProt Q99795 22-235); test: HTRF epitope competition, IgG titrated; competitor parental IgG (Par-A33)
T17 construct: extracellular domain
T17 sequence (looked up): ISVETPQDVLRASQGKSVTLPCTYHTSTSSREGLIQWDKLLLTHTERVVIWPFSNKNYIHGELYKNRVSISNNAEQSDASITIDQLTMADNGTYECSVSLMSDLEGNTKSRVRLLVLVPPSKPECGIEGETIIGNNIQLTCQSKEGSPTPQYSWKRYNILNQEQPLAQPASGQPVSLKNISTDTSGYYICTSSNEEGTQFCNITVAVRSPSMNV

[2] = target: T17, Human A33 ectodomain protein; test: Biacore T-200 SPR, IgG immobilised (~100 RU), purified target protein injected
Description: Biacore analysis was performed using the T-200 biosensor, series S CM5 chips, an amine-coupling kit, 10 mM sodium acetate immobilization buffer at pH 5.0, 10×HBS-P running buffer and NaOH for regeneration (GE Healthcare). Kinetic assay conditions were established to minimize the influence of mass transfer, avidity and rebinding events. A predefined ligand immobilization program was set up to immobilize approximately 100 Response Units (RU) of IgG on the chip. Purified target proteins were diluted in HBS-P running buffer to a range of final concentrations and injected at 50 μl/min for 3 mins. Dissociation was allowed to proceed for 10 min followed by a 5 sec pulse of 20 mM NaOH for regeneration of the chip surface. All sensorgrams were analyzed using the Biacore T-200 evaluation software.

T4 sequence (P20138 18-259 limits assumed): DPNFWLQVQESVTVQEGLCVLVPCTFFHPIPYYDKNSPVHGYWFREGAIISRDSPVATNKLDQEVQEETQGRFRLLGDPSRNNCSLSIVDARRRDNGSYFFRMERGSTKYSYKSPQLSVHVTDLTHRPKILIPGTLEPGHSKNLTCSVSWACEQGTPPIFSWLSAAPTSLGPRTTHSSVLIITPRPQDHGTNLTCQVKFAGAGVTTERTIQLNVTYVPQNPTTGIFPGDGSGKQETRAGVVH
T14 sequence (P15692 other isoform, or with tags, fused parts or gaps limits assumed): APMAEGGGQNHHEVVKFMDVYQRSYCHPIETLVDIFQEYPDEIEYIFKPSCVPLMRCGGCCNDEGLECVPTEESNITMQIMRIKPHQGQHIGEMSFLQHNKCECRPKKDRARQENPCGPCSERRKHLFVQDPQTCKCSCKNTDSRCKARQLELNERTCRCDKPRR
T8 sequence (P13597 28-485 limits assumed): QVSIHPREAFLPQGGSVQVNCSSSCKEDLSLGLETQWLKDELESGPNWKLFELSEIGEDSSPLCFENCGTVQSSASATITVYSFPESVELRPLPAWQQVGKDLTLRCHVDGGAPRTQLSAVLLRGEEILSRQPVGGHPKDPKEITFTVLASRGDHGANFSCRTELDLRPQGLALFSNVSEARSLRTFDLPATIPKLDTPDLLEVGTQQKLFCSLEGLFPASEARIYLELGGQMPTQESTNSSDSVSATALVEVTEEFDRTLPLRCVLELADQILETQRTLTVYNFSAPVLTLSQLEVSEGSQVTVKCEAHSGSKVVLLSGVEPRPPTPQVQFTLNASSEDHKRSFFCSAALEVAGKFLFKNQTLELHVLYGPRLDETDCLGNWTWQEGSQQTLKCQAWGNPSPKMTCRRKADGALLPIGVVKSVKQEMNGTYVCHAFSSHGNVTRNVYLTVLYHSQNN
T2 sequence (Q9HBE5 20-232 limits assumed): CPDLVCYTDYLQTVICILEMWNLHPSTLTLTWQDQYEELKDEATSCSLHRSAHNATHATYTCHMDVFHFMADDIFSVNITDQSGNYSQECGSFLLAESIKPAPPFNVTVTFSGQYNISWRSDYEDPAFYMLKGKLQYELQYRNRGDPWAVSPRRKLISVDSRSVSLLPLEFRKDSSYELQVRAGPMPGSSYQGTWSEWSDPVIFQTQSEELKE
T11 sequence (P15209 32-429 limits assumed): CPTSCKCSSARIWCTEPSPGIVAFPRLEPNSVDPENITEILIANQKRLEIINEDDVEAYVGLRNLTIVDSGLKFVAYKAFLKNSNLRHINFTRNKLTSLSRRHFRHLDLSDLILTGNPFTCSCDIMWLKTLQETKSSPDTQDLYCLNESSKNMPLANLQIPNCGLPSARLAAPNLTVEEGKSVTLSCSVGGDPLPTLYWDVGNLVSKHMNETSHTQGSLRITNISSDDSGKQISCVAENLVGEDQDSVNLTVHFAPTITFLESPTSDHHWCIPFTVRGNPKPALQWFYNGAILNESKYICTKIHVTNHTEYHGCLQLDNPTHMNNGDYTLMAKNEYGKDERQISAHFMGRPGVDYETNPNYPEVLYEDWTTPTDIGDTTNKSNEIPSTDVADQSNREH
T9 sequence (P05362 28-480 limits assumed): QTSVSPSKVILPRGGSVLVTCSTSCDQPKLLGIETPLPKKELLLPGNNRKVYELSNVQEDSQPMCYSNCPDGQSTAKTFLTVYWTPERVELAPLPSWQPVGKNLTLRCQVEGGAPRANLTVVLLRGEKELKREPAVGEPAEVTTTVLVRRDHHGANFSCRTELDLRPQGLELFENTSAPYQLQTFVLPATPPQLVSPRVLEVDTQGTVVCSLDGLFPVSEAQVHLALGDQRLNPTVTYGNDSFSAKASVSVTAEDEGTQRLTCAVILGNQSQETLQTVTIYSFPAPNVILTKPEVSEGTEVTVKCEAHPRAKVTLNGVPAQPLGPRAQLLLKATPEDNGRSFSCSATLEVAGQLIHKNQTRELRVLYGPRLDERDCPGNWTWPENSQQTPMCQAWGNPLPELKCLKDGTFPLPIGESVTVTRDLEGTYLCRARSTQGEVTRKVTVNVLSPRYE
T15 sequence (Q16620 32-430 limits assumed): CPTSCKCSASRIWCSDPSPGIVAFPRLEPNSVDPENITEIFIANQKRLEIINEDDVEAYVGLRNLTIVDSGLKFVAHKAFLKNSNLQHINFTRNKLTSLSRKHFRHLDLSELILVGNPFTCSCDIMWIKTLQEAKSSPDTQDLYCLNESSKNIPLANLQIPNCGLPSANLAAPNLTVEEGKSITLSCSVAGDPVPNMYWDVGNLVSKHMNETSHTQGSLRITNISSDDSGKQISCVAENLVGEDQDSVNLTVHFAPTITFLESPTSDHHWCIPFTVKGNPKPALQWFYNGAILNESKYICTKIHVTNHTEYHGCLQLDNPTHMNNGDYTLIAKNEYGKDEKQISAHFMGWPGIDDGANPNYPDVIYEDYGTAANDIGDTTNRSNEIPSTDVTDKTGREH
T16 sequence (Q62151 24-342 limits assumed): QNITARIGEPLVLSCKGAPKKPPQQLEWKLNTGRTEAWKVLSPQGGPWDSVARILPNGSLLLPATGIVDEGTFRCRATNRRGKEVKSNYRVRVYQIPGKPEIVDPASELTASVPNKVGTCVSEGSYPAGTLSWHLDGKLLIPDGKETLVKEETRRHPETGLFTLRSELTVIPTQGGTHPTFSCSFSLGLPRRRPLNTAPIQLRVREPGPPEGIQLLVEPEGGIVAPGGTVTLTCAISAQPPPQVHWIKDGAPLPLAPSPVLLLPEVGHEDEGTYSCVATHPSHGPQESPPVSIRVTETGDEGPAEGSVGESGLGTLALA
T1 sequence (Q15109 24-344 limits assumed): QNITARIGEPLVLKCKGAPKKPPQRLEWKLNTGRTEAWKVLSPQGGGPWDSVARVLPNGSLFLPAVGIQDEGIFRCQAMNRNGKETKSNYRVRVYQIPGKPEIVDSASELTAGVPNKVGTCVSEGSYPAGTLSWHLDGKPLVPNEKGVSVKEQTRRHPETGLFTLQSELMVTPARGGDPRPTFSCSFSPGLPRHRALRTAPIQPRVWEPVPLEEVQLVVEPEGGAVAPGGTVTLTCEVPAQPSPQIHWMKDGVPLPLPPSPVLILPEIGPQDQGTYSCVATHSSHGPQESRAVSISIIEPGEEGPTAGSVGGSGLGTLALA

binding result (hRAGE): binds | binding result (hIL-21R): no binding (tested: 500 nM) | binding result (mTNFa): no binding (tested: 500 nM) | binding result (hCD33): no binding (tested: 500 nM) | binding result (hCXCL13): no binding (tested: 500 nM) | binding result (mICAM2): no binding (tested: 500 nM) | binding result (hLAMP-1): no binding (tested: 500 nM) | binding result (mICAM1): no binding (tested: 500 nM) | binding result (hICAM1): no binding (tested: 500 nM) | binding result (hLOX-1): no binding (tested: 500 nM) | binding result (hEGFR): no binding (tested: 500 nM) | binding result (mTRKB): no binding (tested: 500 nM) | binding result (mEGFR): no binding (tested: 500 nM) | binding result (hFceR1): no binding (tested: 500 nM) | binding result (hVEGF): no binding (tested: 500 nM) | binding result (hTRKB): no binding (tested: 500 nM) | binding result (mRAGE): binds
B1: Par-RAGE IgG (rat anti-RAGE XT-M4 parental v-domains on the human IgG1 backbone) (antibody, V domains shown)
VH: EVQLVESGGGLVQPGRSLKLSCVVSGFTFNNYWMTWIRQTPGKGLEWVASIDNSGDNTYYPDSVKDRFTISRDNAKSTLYLQMNSLRSEDTATYYCTRGGDITTGFDYWGQGVMVTVSS
VL: DIQMTQSPSSMSVSLGDTITITCRASQDVGIYVNWFQQKPGKSPRRMIYRATNLADGVPSRFSGSRSGSIYSLTISSLESEDVADYHCLEFDEHPLTFGSGTKVEIK
notes: Human IgG1 backbone; also called XTM4 RAGE

IC50 [1]: 2.9 nM | Kd [2]: 2.1 nM | binding result (hIL-21R): no binding (tested: 500 nM) | binding result (mTNFa): no binding (tested: 500 nM) | binding result (hCD33): no binding (tested: 500 nM) | binding result (hCXCL13): no binding (tested: 500 nM) | binding result (mICAM2): no binding (tested: 500 nM) | binding result (hLAMP-1): no binding (tested: 500 nM) | binding result (mICAM1): no binding (tested: 500 nM) | binding result (hICAM1): no binding (tested: 500 nM) | binding result (hLOX-1): no binding (tested: 500 nM) | binding result (hEGFR): no binding (tested: 500 nM) | binding result (mTRKB): no binding (tested: 500 nM) | binding result (mEGFR): no binding (tested: 500 nM) | binding result (hFceR1): no binding (tested: 500 nM) | binding result (hVEGF): no binding (tested: 500 nM) | binding result (hTRKB): no binding (tested: 500 nM)
B2: Chim-A33 IgG (rabbit anti-A33 parental v-domains on the human IgG1 backbone) (antibody, V domains shown)
VH: QEQLMESGGGLVTLGGSLKLSCKASGIDFSHYGISWVRQAPGKGLEWIAYIYPNYGSVDYASWVNGRFTISLDNAQNTVFLQMISLTAADTATYFCARDRGYYSGSRGTRLDLWGQGTLVTISS
VL: ELVMTQTPPSLSASVGETVRIRCLASEFLFNGVSWYQQKPGKPPKFLISGASNLESGVPPRFSGSGSGTDYTLTIGGVQAEDVATYYCLGGYSGSSGLTFGAGTNVEIK
notes: also called Par-A33; A33 Rabbit
